Experimental data taken from US20240342207, “MODIFIED NUCLEIC ACID COMPOSITIONS AND ASSOCIATED METHODS FOR TREATMENT OF PHENYLKETONURIA” (BOARD OF REGENTS, THE UNIVERSITY OF TEXAS SYSTEM, published 2024).

Legend:
Conditions in all cases: tags: His-tag, E. coli; stem-loop
[1] = target: T1, PAH S349L (Homo sapiens, UniProt P00439 P00439:1-452, S349L); experiment: EMSA; also decreased affinity in quantified assay
T1 sequence: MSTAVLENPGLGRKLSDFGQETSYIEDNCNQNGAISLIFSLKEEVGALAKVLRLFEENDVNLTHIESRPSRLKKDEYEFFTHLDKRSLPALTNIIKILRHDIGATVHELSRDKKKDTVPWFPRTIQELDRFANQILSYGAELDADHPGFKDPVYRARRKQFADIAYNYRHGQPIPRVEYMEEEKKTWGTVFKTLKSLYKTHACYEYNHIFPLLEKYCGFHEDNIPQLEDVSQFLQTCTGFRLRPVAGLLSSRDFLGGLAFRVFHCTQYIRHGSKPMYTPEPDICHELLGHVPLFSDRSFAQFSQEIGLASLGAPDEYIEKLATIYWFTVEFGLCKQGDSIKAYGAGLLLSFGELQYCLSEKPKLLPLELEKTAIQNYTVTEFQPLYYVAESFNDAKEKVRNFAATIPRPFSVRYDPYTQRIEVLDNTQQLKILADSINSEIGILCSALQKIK
From the text: (§1) It was reasoned that supplementing lncRNAs might improve the catalytic activities of the PAH mutants, leading to reduced serum Phe concentrations and improved symptoms in patients with PKU. Scramble (Scr) and HULC mimics representing wild-type HULC nt. 181-201 and HULC A191G mutated sequences were designed for the following studies. 17 PAH mutants that were identified from patients with PKU and are known to affect the enzymatic activity of PAH (21, 22) were selected, and bacterially-expressed wild-type and mutant PAH (FIG. 10 and see FIG. S13A in Li et al. 2021) were collected. […] The denatured wild-type PAH proteins were included as a negative control.
(§2) RNA Electrophoretic Mobility Shift Assay (EMSA). The gel mobility shift assay was performed as previously described (42). Briefly, 500 ng recombinant His-tagged wild-type PAH or mutants were incubated with 0.035 μmol labeled probe in a RNA-protein binding buffer [(50 mM Tris-HCl 7.9, 10% glycerol, 100 mM KCl, 5 mM MgCl₂, 10 mM (3-ME, 0.1% NP40] for 30 min at 30° C. For cold RNA competition, 0.035 μmol radiolabeled RNA probes were first mixed with 7 μmol cold RNA competitors and then subjected to the gel shift assay.

[2] = target: T2, PAH R157N (Homo sapiens, UniProt P00439 P00439:1-452, R157N); experiment: EMSA; also decreased affinity in quantified assay
T2 sequence: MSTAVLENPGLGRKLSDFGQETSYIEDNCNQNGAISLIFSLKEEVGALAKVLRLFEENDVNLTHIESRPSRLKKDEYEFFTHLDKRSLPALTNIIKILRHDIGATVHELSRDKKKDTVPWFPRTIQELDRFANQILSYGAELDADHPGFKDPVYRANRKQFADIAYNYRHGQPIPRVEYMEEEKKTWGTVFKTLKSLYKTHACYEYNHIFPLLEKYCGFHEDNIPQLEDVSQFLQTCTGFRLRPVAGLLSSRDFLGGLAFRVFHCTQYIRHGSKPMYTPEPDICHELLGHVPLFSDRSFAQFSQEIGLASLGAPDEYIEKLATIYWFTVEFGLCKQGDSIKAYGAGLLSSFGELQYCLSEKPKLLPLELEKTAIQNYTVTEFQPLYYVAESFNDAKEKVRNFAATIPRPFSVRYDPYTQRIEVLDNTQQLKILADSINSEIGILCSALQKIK
From the text: as §1, §2

[3] = target: T3, PAH Y417H (Homo sapiens, UniProt P00439 P00439:1-452, Y417H); experiment: EMSA; one of 13 of 17 binding mutants (identity from p198 list)
T3 sequence: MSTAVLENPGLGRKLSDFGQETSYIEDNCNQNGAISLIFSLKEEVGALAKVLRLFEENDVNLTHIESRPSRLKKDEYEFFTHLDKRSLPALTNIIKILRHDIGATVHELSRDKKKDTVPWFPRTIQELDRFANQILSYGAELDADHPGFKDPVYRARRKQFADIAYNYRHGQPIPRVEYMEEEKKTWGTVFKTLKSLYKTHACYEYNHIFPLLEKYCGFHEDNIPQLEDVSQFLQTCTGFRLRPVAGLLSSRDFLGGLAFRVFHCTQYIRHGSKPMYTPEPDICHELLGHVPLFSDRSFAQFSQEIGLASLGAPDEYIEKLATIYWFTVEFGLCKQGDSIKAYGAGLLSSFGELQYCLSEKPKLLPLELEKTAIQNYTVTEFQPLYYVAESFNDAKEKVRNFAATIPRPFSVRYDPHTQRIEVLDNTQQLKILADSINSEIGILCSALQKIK
From the text: as §1, §2

[4] = target: T4, PAH Y414C (Homo sapiens, UniProt P00439 P00439:1-452, Y414C); experiment: as above
T4 sequence: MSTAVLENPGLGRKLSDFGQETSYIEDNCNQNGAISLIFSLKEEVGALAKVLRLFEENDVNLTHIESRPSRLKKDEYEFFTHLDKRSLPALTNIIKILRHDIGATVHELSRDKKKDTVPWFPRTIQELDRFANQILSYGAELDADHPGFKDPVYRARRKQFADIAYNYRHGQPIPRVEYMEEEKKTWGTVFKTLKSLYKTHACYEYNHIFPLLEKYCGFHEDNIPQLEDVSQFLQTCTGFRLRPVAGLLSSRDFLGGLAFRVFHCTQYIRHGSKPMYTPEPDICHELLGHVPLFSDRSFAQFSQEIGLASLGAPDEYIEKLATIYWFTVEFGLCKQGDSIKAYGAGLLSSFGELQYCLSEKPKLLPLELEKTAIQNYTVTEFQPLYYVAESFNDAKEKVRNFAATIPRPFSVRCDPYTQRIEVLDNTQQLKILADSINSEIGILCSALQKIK
From the text: as §1, §2

**Q.** Which results are given for CAAAAUGCAUAUGUAUCUUUG (ssRNA) [HULC 181-201 mimic]?
**A.** binding result [1]: no binding; binding result [2]: no binding; binding result [3]: binds; binding result [4]: binds
